From PMC4160250

How the values were obtained:
[1] = target: His-tagged DC-UbP (human) (UniProt Q8WUN7); experiment: NMR titration; 15N-labelled DC-UbP (100 uM) titrated stepwise with unlabelled USP5, UbE1, FH or SCCH; 1H-15N HSQC, 20 mM phosphate, 50 mM NaCl, pH 6.5, 298 K
[2] = target: UbP_C (C-terminal part of DC-UbP, residues 129-234), His-tagged (human) (UniProt Q8WUN7); experiment: NMR titration; 15N-labelled UbP_C (200 uM; 150 uM for the affinity) titrated with USP5_UBA12 or USP5_ZnF; 1H-15N HSQC, 20 mM phosphate, 50 mM NaCl, pH 6.5, 298 K
UbP_C (C-terminal part of DC-UbP, residues 129-234), His-tagged (human), sequence (Q8WUN7 129-234): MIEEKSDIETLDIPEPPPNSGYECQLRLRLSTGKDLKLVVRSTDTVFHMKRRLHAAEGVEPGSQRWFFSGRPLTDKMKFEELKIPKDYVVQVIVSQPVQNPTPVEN

His-tagged DC-UbP (human), sequence (Q8WUN7 whole entry, the tested form may be a part): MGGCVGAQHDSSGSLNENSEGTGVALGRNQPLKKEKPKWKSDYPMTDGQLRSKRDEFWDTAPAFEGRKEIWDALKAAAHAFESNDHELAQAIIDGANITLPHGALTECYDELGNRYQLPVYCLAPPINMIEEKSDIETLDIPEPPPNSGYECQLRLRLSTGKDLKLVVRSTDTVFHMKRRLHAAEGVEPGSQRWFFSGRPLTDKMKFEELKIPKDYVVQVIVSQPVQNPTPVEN

For “USP5, recombinant, purified (from UniProt P45974 1-858) (enzyme)”, the mean relative peak intensity of the UBD domain of DC-UbP at 1:1 molar ratio (free DC-UbP = 1) [1] was 0.56 and the mean relative peak intensity of the UbL domain of DC-UbP at 1:1 molar ratio (free DC-UbP = 1) [1] was 0.27.
With “USP5_UBA12 (tandem UBA domains of USP5, residues 625-749) (from UniProt P45974 625-749) (domain or fragment)” the Kd [2] was 400 µM.
